Substrate in data set [1]: Nc1ncnc2c1ncn2[C@@H]1O[C@H](CO)[C@@H](O)[C@H]1O
In words: stopped-flow absorbance Michaelis-Menten kinetics. The format is biochemical, Bos taurus.

Substrate in data set [2]: Nc1ncnc2c([C@@H]3O[C@H](CO)[C@@H](O)[C@H]3O)snc12
In words: stopped-flow fluorescence Michaelis-Menten kinetics. It is filed as biochemical, Bos taurus.

B1: adenosine deaminase (ADA) (Bos taurus) (protein)
chain: AQTPAFNKPKVELHVHLDGAIKPETILYYGRKRGIALPADTPEELQNIIGMDKPLSLPEFLAKFDYYMPAIAGCREAVKRIAYEFVEMKAKDGVVYVEVRYSPHLLANSKVEPIPWNQAEGDLTPDEVVSLVNQGLQEGERDFGVKVRSILCCMRHQPSWSSEVVELCKKYREQTVVAIDLAGDETIEGSSLFPGHVKAYAEAVKSGVHRTVHAGEVGSANVVKEAVDTLKTERLGHGYHTLEDATLYNRLRQENMHFEVCPWSSYLTGAWKPDTEHPVVRFKNDQVNYSLNTDDPLIFKSTLDTDYQMTKNEMGFTEEEFKRLNINAAKSSFLPEDEKKELLDLLYKAYGMPSPASAEQCL
Consider B1, for which the Km is 25.1 ± 3.2 µM in data set [1] and 18.8 ± 3.2 µM in data set [2].
